Measured values reported in paper PMC314469, “Protein Interaction Networks by Proteome Peptide Scanning” (PLoS Biology, 2004).

T1: Yhr016c SH3 (YSC84_YEAST), P32793
T1 chain: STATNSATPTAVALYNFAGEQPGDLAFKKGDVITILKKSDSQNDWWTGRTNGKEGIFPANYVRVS

T2: Boi1 SH3 (BOI1_YEAST), P38041
T2 chain: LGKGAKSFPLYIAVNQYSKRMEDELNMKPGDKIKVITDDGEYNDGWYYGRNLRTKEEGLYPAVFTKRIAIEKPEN

T3: Myo5 SH3 (MYO5_YEAST), Q04439
T3 chain: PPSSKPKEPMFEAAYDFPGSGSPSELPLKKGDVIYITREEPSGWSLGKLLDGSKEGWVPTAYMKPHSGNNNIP

T4: Rvs167 SH3 (RV167_YEAST), P39743
T4 chain: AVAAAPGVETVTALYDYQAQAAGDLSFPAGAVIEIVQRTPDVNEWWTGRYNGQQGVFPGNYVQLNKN

T5: Yfr024 SH3 (LSB3_YEAST), P43603
T5 chain: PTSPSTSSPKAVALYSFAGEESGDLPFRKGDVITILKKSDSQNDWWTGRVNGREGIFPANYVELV

T6: Boi2 SH3 (BOI2_YEAST), P39969
T6 chain: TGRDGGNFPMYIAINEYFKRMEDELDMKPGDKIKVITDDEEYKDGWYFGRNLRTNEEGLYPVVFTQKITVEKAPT


Key:
Assay in all cases: SPOT array
[1] = target: T1, Yhr016c SH3 (YSC84_YEAST), P32793
[2] = target: T2, Boi1 SH3 (BOI1_YEAST), P38041
[3] = target: T3, Myo5 SH3 (MYO5_YEAST), Q04439
[4] = target: T4, Rvs167 SH3 (RV167_YEAST), P39743
[5] = target: T5, Yfr024 SH3 (LSB3_YEAST), P43603
[6] = target: Sho1 SH3 (SHO1_YEAST), P40073
[7] = target: T6, Boi2 SH3 (BOI2_YEAST), P39969

Sequence of Sho1 SH3 (SHO1_YEAST), P40073 (P40073 295-366): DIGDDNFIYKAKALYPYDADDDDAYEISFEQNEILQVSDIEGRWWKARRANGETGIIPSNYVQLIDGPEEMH

Row | Binder | normalised SPOT signal, Boehringer light units (BLU); mean over the file's lines of this peptide [1] | normalised SPOT signal, Boehringer light units (BLU); mean over the file's lines of this peptide [2] | normalised SPOT signal, Boehringer light units (BLU); mean over the file's lines of this peptide [3] | normalised SPOT signal, Boehringer light units (BLU); mean over the file's lines of this peptide [4] | normalised SPOT signal, Boehringer light units (BLU); mean over the file's lines of this peptide [5] | normalised SPOT signal, Boehringer light units (BLU); mean over the file's lines of this peptide [6] | normalised SPOT signal, Boehringer light units (BLU); mean over the file's lines of this peptide [7]
1 | LTLTKWDPSKPISL [YKL027W 383-396] | 21.1 | 190 | 231 | 12.4 | 65.5 | 27 | 104
2 | LTSFKGRPKPPKTL [YGR221C 455-468] | 23.2 | 710 | 328 | 50.5 | 216 | 189 | 12.9
3 | LTSVKIVPQRPISD [YAL054C 43-56] | 34.4 | 100 | 89 | 244 | 1530 | 15.3 | 54.6
4 | LVGLKYEPLFPYFA [YBL076C 285-298] | 25.3 | 50.5 | 125 | 35.1 | 26.7 | 76.6 | 108
5 | LVPSKAIPPLPQLD [YJL066C 98-111] | 26 | 61.8 | 558 | 28.6 | 226 | 102 | 51.2
6 | LWRPRIVPILPYIT [YDR335W 779-792] | 331 | 8230 | 1050 | 627 | 1540 | 112 | 1870
7 | LYREREEPPLPKRI [YKL214C 53-66] | 16200 | 5980 | 112 | 2730 | 11800 | 189 | 18.3
8 | MAEFRRVPLPPMAE [YML058W 28-41] | 7260 | 59.6 | 443 | 30400 | 30500 | 57.5 | 64.1
9 | MAFIKILPNNPWPF [YGL065C 457-470] | 4.3 | 44.1 | 59.9 | 46.5 | 75.2 | 166 | 0
10 | MDGIKELPEFPIKK [YMR266W 737-750] | 40.3 | 25.9 | 138 | 32.2 | 402 | 3820 | 0.9
11 | MDKFRIPPKSPNIE [YDR017C 929-942] | 473 | 3140 | 222 | 196 | 2100 | 34.3 | 74.3
12 | MDMDRNVPLAPNLN [YJR066W 21-34] | 77.5 | 41.3 | 91.4 | 30.8 | 475 | 30.7 | 31.4
13 | MGLNKDVPHSPESL [YPL111W 171-184] | 242 | 146 | 99.4 | 251 | 733 | 19.1 | 50.6
14 | MKAYRANPPLPIDS [YDR104C 798-811] | 615 | 132 | 123 | 145 | 938 | 231 | 133
15 | MKPQKIAPKFPGTV [YDR091C 417-430] | 40.5 | 1110 | 416 | 137 | 394 | 142 | 31.6
16 | MLFMKGSPSEPKSG [YDR098C 199-212] | 262 | 30.9 | 251 | 377 | 1090 | 59.6 | 128
